Results: patent publication US20200040086A1 (BERLIN CHEMIE, published 2020)

Legend:
[1] = target: T1, LY75 (DEC-205) on COLO205 cells (human, UniProt O60449 28-1722); assay: competitive FACS on COLO205 cells
T1 construct: also called Lymphocyte antigen 75
Method: COLO205 cells (ATCC, catalog # CCL-222) were detached from tissue culture flasks with Cell Stripper (Cellgro, catalog # MT-25-056CI). Cells were washed and resuspended in FACS buffer (PBS+2% FBS), neutralized with growth media, and counted. Cells were plated at 50,000 cells per well in a V Bottom 96-well plate. Cells were washed once with FACS buffer (PBS (Fisher, catalog # SH30028-03)+2% FBS). An anti-LY75-mAb (Selected from Example 1) or LY75_A1 was added to wells starting at 250 nM and diluted serially 3 fold and applied to the relevant wells for 45 minutes on ice. Test wells that required single or multiple staining steps were left in FACS buffer as appropriate to ensure the final staining was completed simultaneously for all conditions tested. Two wells were left unstained in FACS buffer as controls.
After the incubation with blocking antibody, cells were washed twice in FACS buffer. The cells were resuspended in FACS buffer containing the anti-LY75-mAb conjugated to MCC-DM1 (1 nM) and incubated on ice for 45 minutes. The cells were washed as above and resuspended in FACS buffer plus 1 ug/ml mouse anti-maytansine antibody and incubated in ice for 45 minutes. […] Mean fluorescence intensity of each sample was determined using a Guava EasyCyte Plus HT Flow Cytometer (96 well plate formats) and the raw data was analyzed using the Guava Cytosoft.

RHFVSLCQ = target: T2, RHFVSLCQ; assay: peptide microarray of 8mer LY75 peptides
T2 construct: 8mer of LY75 on the peptide microarray, chart Region 6
T2 peptide: RHFVSLCQ

SLCQKYSE = target: T3, SLCQKYSE; assay: peptide microarray of 8mer LY75 peptides
T3 construct: 8mer of LY75 on the peptide microarray, chart Region 6
T3 peptide: SLCQKYSE

LCQKYSEV = target: T4, LCQKYSEV; assay: peptide microarray of 8mer LY75 peptides
T4 construct: 8mer of LY75 on the peptide microarray, chart Region 6
T4 peptide: LCQKYSEV

CQKYSEVK = target: T5, CQKYSEVK; assay: peptide microarray of 8mer LY75 peptides
T5 construct: 8mer of LY75 on the peptide microarray, chart Region 6
T5 peptide: CQKYSEVK

QKYSEVKS = target: T6, QKYSEVKS; assay: peptide microarray of 8mer LY75 peptides
T6 construct: 8mer of LY75 on the peptide microarray, chart Region 6
T6 peptide: QKYSEVKS

NLYKIIPK = target: T7, NLYKIIPK; assay: peptide microarray of 8mer LY75 peptides
T7 construct: 8mer of LY75 on the peptide microarray, chart Region 7
T7 peptide: NLYKIIPK

KIIPKTLT = target: T8, KIIPKTLT; assay: peptide microarray of 8mer LY75 peptides
T8 construct: 8mer of LY75 on the peptide microarray, chart Region 7
T8 peptide: KIIPKTLT

IIPKTLTW = target: T9, IIPKTLTW; assay: peptide microarray of 8mer LY75 peptides
T9 construct: 8mer of LY75 on the peptide microarray, chart Region 7
T9 peptide: IIPKTLTW

PKTLTWHS = target: T10, PKTLTWHS; assay: peptide microarray of 8mer LY75 peptides
T10 construct: 8mer of LY75 on the peptide microarray, chart Region 7
T10 peptide: PKTLTWHS

KTLTWHSA = target: T11, KTLTWHSA; assay: peptide microarray of 8mer LY75 peptides
T11 construct: 8mer of LY75 on the peptide microarray, chart Region 7
T11 peptide: KTLTWHSA

[2] = target: Contiguous 8mer peptides of LY75 protein spanning residues 216 to 1666 of the full length LY75 protein; assay: peptide microarray, 1 ug/mL LY75_A1, anti-human IgG Alexa 647
[3] = target: T12, LY75 Region 4 (aa883-901) (human); assay: peptide microarray; signal above the cut off of 3000
T12 construct: Region made up of overlapping 8mers on the array
T12 peptide: DDHFTYSRYPWHRFPVTFG

[4] = target: T13, LY75 Region 5 (aa1029-1040) (human); assay: as above
T13 construct: Region made up of overlapping 8mers on the array
T13 peptide: RELTYSNFHPLL

[5] = target: T14, LY75 Region 6 (aa1077-1093) (human); assay: as above
T14 construct: Region made up of overlapping 8mers on the array
T14 peptide: FTSCSERHFVSLCQKYS

[6] = target: T15, LY75 Region 7 (aa1107-1118) (human); assay: as above
T15 construct: Region made up of overlapping 8mers on the array
T15 peptide: TVKYLNNLYKII

[7] = target: T16, LY75 Region 3 (aa761-780) (human); assay: as above
T16 construct: Region made up of overlapping 8mers on the array
T16 peptide: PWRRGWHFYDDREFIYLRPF

[8] = target: Contiguous 8mer peptides of LY75 protein spanning residues 216 to 1666 of the full length LY75 protein; assay: peptide microarray, 1 ug/mL LY75_A1, anti-human IgG Alexa 647; the peptide is not named
DDHFTYSR = target: T17, DDHFTYSR; assay: peptide microarray of 8mer LY75 peptides, LY75_A1 at 1 µg/mL, anti-human IgG Alexa 647
T17 construct: 8mer of LY75 on the peptide microarray, chart Region 4
T17 peptide: DDHFTYSR
Method: (§1) The peptide microarray analysis was performed by LC Sciences, Houston Tex., in brief the method comprised the following steps:—Contiguous 8mer peptides of LY75 protein having […] spanning residues 216 to 1666 of the full length LY75 protein were synthesized and immobilized on a microarray chip. The chip comprised three panels such that the experiment was performed in triplicate. The microarray was addressed with LY75_A1 to identify the peptides to which the antibody bound. The binding assay was performed under the following conditions:—
(§2) The microarray comprising the contiguous peptides in triplicate was washed with 1 mL of binding buffer at 4° C. for 20 min. It was then incubated with 1 μg/mL LY75_A1 in binding buffer (pH 7.0) at 4° C. for 2 hrs. The array was again washed with 0.5 mL of washing buffer at 4° C. for 30 min then incubated with 25 ng/mL anti-human IgG Alexa 647 conjugate in binding buffer (pH 7.0) at 4° C. for 1 hr. The array was again washed with 0.5 mL of washing buffer at 4° C. for 30 min.

HFTYSRYP = target: T18, HFTYSRYP; assay: as above
T18 construct: 8mer of LY75 on the peptide microarray, chart Region 4
T18 peptide: HFTYSRYP
Method: as §1, §2

[9] = target: T19, LY75 tryptic peptide GWHFYDDR (765-772) (human); assay: peptide microarray of 8mer LY75 peptides (array peptide with the letters of m17), LY75_A1 at 1 µg/mL, anti-human IgG Alexa 647
T19 construct: Tryptic peptide of recombinant LY75 identified by mass spectrometry after pull down
T19 peptide: GWHFYDDR
Method: as §1, §2

T1 sequence (O60449 28-1722 limits assumed): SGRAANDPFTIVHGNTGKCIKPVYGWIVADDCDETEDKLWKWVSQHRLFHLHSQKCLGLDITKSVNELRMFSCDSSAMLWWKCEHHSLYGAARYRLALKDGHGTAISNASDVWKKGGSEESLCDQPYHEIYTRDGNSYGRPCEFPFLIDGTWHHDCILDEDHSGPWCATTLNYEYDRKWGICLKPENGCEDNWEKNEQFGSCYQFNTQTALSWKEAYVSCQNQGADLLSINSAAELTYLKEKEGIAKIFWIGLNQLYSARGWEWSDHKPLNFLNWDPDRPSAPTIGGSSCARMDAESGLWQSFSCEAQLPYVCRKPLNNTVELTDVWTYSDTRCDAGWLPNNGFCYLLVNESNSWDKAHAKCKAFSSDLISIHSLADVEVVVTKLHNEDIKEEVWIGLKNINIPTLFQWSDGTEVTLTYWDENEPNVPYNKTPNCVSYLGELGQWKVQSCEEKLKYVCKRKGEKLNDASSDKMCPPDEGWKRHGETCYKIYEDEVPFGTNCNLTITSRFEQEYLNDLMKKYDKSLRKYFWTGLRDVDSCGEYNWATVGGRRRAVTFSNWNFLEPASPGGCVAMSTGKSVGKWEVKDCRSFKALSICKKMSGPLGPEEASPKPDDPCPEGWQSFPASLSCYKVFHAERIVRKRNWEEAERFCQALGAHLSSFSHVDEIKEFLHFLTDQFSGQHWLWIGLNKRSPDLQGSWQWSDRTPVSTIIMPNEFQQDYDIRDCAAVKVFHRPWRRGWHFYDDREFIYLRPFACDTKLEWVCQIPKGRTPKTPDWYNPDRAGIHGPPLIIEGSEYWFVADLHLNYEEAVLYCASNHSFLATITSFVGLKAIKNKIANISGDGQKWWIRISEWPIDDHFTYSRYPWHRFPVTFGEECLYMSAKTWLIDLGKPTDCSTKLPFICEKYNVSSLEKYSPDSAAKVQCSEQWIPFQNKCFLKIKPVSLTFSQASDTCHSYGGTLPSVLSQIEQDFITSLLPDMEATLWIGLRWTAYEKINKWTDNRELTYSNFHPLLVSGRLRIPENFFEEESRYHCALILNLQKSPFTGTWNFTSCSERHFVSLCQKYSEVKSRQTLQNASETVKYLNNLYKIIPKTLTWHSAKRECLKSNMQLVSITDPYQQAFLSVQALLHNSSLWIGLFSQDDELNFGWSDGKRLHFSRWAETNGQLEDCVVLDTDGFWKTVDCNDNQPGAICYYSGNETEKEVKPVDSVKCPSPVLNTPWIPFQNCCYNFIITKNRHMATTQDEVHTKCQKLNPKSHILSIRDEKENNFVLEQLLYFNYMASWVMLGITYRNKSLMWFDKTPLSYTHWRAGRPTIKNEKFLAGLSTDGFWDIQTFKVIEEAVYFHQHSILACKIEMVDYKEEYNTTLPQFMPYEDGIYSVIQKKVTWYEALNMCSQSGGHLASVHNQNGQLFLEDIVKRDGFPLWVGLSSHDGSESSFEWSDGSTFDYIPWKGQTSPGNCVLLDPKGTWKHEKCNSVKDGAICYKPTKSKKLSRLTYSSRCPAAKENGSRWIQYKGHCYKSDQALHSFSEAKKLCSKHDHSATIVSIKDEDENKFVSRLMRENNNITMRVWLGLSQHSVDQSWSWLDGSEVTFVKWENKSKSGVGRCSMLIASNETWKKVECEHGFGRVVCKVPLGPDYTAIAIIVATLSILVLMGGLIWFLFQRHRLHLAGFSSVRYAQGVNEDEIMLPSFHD

B1: LY75_A1 (antibody, V domains shown)
VH: EVQLVESGGGLVKPGGSLRLSCAASGFTYSNAWMSWVRQAPGKGLEWVGRIKSKTDGGTTDYAAPVQGRFTISRDDSKNTLYLQMNSLKTEDTAVYYCTIFGVVSFDYWGQGTLVTVSS
VL: DVQMTQSPSSLSASVGDRVTITCRASQSISDYLSWYQQRPGKAPNLLIYAASNLKTGVPSRFSGSGSGTDFTLTISTLQPEDFATYYCQQSYRSPWTFGQGTKVEIKR
notes: detected with anti-human IgG in the microarray; also called antibody LY75_A1; LY75_A1 monoclonal antibody
- binding result [1]: binds
- binding result (RHFVSLCQ): no binding (tested: 1 µg/mL)
- binding result (SLCQKYSE): no binding (tested: 1 µg/mL)
- binding result (LCQKYSEV): no binding (tested: 1 µg/mL)
- binding result (CQKYSEVK): no binding (tested: 1 µg/mL)
- binding result (QKYSEVKS): no binding (tested: 1 µg/mL)
- binding result (NLYKIIPK): no binding (tested: 1 µg/mL)
- binding result (KIIPKTLT): no binding (tested: 1 µg/mL)
- binding result (IIPKTLTW): no binding (tested: 1 µg/mL)
- binding result (PKTLTWHS): no binding (tested: 1 µg/mL)
- binding result (KTLTWHSA): no binding (tested: 1 µg/mL)
- average signal for all spots on the array (signal intensity (scale 1-65535)) [2]: 885
- binding result [3]: binds
- binding result [4]: binds
- binding result [5]: binds
- binding result [6]: binds
- binding result [7]: binds
- maximum signal (signal intensity (scale 1-65535)) [8]: 25000
- binding result (DDHFTYSR): binds
- binding result (HFTYSRYP): binds
- binding result [9]: binds
